# T1: full length human 5T4 (SEQ ID NO: 1) on cells (human, UniProt Q13641 32-420)
# T1 construct: Uniprot Q13641; residues 1-31 are the signal peptide; Used both for transfected HEK-293 cells and for 5T4-expressing human tumor cell lines
# T1 sequence: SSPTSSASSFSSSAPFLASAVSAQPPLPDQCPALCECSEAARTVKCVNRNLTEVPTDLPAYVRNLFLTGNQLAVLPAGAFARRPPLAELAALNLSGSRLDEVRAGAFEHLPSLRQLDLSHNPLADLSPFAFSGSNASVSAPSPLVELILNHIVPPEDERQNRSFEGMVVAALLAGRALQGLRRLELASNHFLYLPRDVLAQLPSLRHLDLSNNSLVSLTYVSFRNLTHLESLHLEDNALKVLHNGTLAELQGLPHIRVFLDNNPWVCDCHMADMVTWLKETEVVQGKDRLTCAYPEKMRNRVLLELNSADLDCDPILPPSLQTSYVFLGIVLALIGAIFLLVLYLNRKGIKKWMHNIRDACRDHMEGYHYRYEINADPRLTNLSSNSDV
# T2: full length cynomolgus monkey 5T4 on transfected HEK-293 cells (cynomolgus monkey, UniProt Q4R8Y9 35-420)
# T2 construct: Uniprot Q4R8Y9; residues 1-34 are the signal peptide; also called cynomolgus 5T4
# T2 sequence: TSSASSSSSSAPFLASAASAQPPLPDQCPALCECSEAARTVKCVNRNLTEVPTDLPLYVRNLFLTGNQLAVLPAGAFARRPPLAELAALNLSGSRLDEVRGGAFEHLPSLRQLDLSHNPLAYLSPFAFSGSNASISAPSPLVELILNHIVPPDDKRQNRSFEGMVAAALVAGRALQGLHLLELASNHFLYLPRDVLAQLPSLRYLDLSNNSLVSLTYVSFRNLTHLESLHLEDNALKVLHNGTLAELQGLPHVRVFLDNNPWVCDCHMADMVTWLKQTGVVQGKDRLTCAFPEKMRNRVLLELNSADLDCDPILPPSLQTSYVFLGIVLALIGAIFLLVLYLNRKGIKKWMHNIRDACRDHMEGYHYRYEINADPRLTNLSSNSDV
# Columns and labels:
# [1] = target: T1, full length human 5T4 (SEQ ID NO: 1) on …; experiment: flow cytometry, HeLa cells, FITC secondary [I)A]
# Method: (§1) After washing twice in staining buffer, cells were incubated in 50 µL secondary antibody at 4° C. for 30 min. […] Next, cells were washed twice in staining buffer, re-suspended in 120 µL staining buffer and analyzed on a BD LSRFortessa FACS (BD Biosciences, USA). Binding curves were analyzed using non-linear regression (sigmoidal dose-response with variable slope) using GraphPad Prism V7.02 software (GraphPad Software, San Diego, CA, USA).
# [2] = target: T1, full length human 5T4 (SEQ ID NO: 1) on …; experiment: flow cytometry, MDA-MB-231 cells, FITC secondary [I)A]
# Method: as §1
# [3] = target: T1, full length human 5T4 (SEQ ID NO: 1) on …; experiment: flow cytometry, HEK-293 cells transfected with human 5T4, PE secondary [II)A]
# [4] = target: T1, full length human 5T4 (SEQ ID NO: 1) on …; experiment: flow cytometry, HEK-293 cells transfected with human 5T4, FITC secondary [I)A]
# Method: (§2) Experiments were performed in technical duplicate. After washing twice in staining buffer, cells were incubated in 50 µL secondary antibody at 4° C. for 30 min. […] Cells were washed twice in staining buffer, re-suspended in 30 µL staining buffer and analyzed on an iQue Screener (Intellicyt Corporation, USA). Binding curves were analyzed using non-linear regression (sigmoidal dose-response with variable slope) using GraphPad Prism V7.02 software (GraphPad Software, San Diego, CA, USA).
# [5] = target: T2, full length cynomolgus monkey 5T4 on …; experiment: flow cytometry, HEK-293 cells transfected with cynomolgus monkey 5T4, PE secondary [II)A]
# [6] = target: T2, full length cynomolgus monkey 5T4 on …; experiment: flow cytometry, HEK-293 cells transfected with cynomolgus monkey 5T4, FITC secondary [I)A]
# Method: as §2
# [7] = target: T1, full length human 5T4 (SEQ ID NO: 1) on …; experiment: flow cytometry, HeLa cells, FITC secondary [I)C]
# Method: as §1
# [8] = target: T1, full length human 5T4 (SEQ ID NO: 1) on …; experiment: flow cytometry, HEK-293 cells transfected with human 5T4, PE secondary [II)B]
# [9] = target: T1, full length human 5T4 (SEQ ID NO: 1) on …; experiment: flow cytometry, HEK-293 cells transfected with human 5T4, FITC secondary [I)B]
# Method: as §2
# [10] = target: T2, full length cynomolgus monkey 5T4 on …; experiment: flow cytometry, HEK-293 cells transfected with cynomolgus monkey 5T4, PE secondary [II)B]
# [11] = target: T2, full length cynomolgus monkey 5T4 on …; experiment: flow cytometry, HEK-293 cells transfected with cynomolgus monkey 5T4, FITC secondary [I)B]
# Method: as §2
binder,measurement,setting,value
"IgG1-5T4-207-FEAR (antibody, V domains shown, Monospecific, bivalent IgG1 FEAR) VH: QVQLQQWGAGLLKPSETLSLTCAVYGGSFSGYYWTWIRQPPGKGLEWIGEIDHSESTNYNPSLKSRVTISVDTSKNQFSLKLSSVTAADTAVYYCAGWFGELYHYYYGMDVWGQGTTVTVSS VL: EIVLTQSPATLSLSPGERATLSCRASQSVSSYLAWYQQKPGQAPRLLIYDASNRATGIPARFSGSGSGTDFTLTISSLEPEDFAVYYCQQRSNWPLTFGGGTKVEIKR",EC50 (read off the curve),[1],~0.008 µg/mL
same,EC50 (read off the curve),[2],~0.03 µg/mL
same,EC50 (read off the curve),[3],~0.08 µg/mL
same,EC50 (read off the curve),[4],~0.05 µg/mL
same,EC50 (read off the curve),[5],~0.08 µg/mL
same,EC50 (read off the curve),[6],~0.06 µg/mL
"IgG1-5T4-226-FEAR (antibody, V domains shown, Monospecific, bivalent human IgG1 kappa with L234F, L235E, D265A, K409R (FEAR); also called IgG1-5T4-226-FEAR-FITC) VH: QVQLQQWGAGLLKPSETLSLTCAVYGGSFSGYYWSWIRQPPGKGLEWIGEIDHSGSTNYNPSLKSRVTISVDTSKNQFSLKLSSVTAADTAVYYCAAWFGELWDYYYGMDVWGQGTTVTVSS VL: EIVLTQSPATLSLSPGERATLSCRASQSVSSFLAWYQQKPGQAPRLLIYDASNRATGIPARFSGSGSGTDFTLTISSLEPEDFAVYYCQQRSNWPLTFGQGTRLEIK",EC50 (read off the curve),[7],~0.01 µg/mL
same,EC50 (read off the curve),[8],~0.02 µg/mL
same,EC50 (read off the curve),[9],~0.1 µg/mL
same,EC50 (read off the curve),[10],~0.02 µg/mL
same,EC50 (read off the curve),[11],~0.08 µg/mL

# Reference: US20230257479A1 (Genmab, published 2023)
